Measurements as given in patent publication US11278600B2, “Human alpha-galactosidase variants” (Codexis, Inc., priority 2014, dated 2022).

Columns and labels:
Assay type in all cases: biochemical
[1] = HTP-analysis of supernatants pretreated with bovine serum (MUGal hydrolysis); conditions: activity of the variant/activity of Rd3BB (SEQ ID NO: 13), yeast culture supernatant
Method in brief: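 Yeast INVSc1 culture supernatants containing secreted GLA variants were mixed with bovine serum (20:80) and held 1 h at 37° C. Serum-treated samples then reacted with MUGal (4 mM stock) in citrate/McIlvaine buffer (pH 4.3/4.8) for 180 min at 37° C., were quenched with sodium carbonate, and read by fluorescence (Ex 355, Em 448 nm).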

[2] = HTP-analysis of supernatants pretreated with base (MUGal hydrolysis); conditions: challenge at pH 8.2; activity of the variant/activity of Rd3BB (SEQ ID NO: 13); yeast culture supernatant
Method in brief: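 Supernatants from INVSc1 yeast expressing GLA variants (SD-Ura, 66-84 h, 30° C) were mixed with McIlvaine buffer pH 7.0-8.2 or 200 mM sodium bicarbonate pH 9.1-9.7 and held 1-18 h at 37° C. Residual activity was then measured on MUGal at pH 4.8/4.3, 37° C, 30-180 min, by fluorescence (Ex 355/Em 448 nm).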

[3] = HTP-analysis of supernatants pretreated with acid (MUGal hydrolysis); conditions: challenge at pH 4.0; activity of the variant/activity of Rd3BB (SEQ ID NO: 13); yeast culture supernatant
Method in brief: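 Yeast INVSc1 supernatant, GLA variants; acid challenge: McIlvaine pH 3.3-4.3, 37° C., 1-3 h. Assay: MUGal in McIlvaine pH 4.8 plus citrate pH 4.3, 37° C., 30-180 min, Na2CO3 stop, Ex 355/Em 448 nm.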

[4] = HTP-analysis of yeast culture supernatants, no challenge (MUGal hydrolysis); conditions: activity of the variant/activity of Rd3BB (SEQ ID NO: 13), yeast culture supernatant
Method in brief: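 GLA variants were expressed in INVSc1 yeast grown in SD-Ura broth with glucose at 30° C., and culture supernatants were collected after 66-84 h. Supernatant was mixed with McIlvaine buffer pH 4.8 and MUGal (2 mM stock) in 50 mM citrate, 200 mM KCl, pH 4.6, incubated at 37° C. for 30-180 minutes, then quenched with sodium carbonate.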

Row | Molecule | Relative Activity of GLA Variants After Challenge with Serum [1] | Relative Activity of GLA Variants After Challenge at pH 8.2 [2] | Relative Activity of GLA Variants After Challenge at pH 4.0 [3] | Relative Activity of GLA Variants After No Challenge (NC) [4]
1 | 348 (protein, Synthetic Polypeptide sequence of Variant No. 348 of mature Human GLA) LDNGLARTPTMGWLHWERFMCNLDCQEEPDSCISEKLFMEMAERMVSEGWKDAGYEYLCIDDCWMAPQRDSEGRLQADPQRFPHGIRQLANYVHSKGLKFGIYADVGNKTCAGFPGSFGYYDIDAQTFADWGVDLLKFDGCYCDSLENLADGYKHMSLALNRTGRSIVYSCEWPLYMWPFQKPNYTEIRQYCNHWRNFADIDDSWASVKSILDWTSFNQEKIVDVAGPGGWNDPDMLVIGNFGLSWNQQVTQMALWAIMAAPLFMSNDLRHISPQAKALLQDKDVIAINQDPLGKQGYQLRQGDNFEVWERPLSGLAWAVAIINRQEIGGPRSYTIAVASLGGGVACNPACFITQLLPVKRKLGLYNWTSRLKSHINPTGTVLLQLENTMQMSLKDLL | + (+ = 0.5 to 1.5 relative activity over Rd3BB (SEQ ID NO: 13)) | + (+ = 0.5 to 1.5 relative activity over Rd3BB (SEQ ID NO: 13)) | + (+ = 0.5 to 1.5 relative activity over Rd3BB (SEQ ID NO: 13)) | + (+ = 0.5 to 1.5 relative activity over Rd3BB (SEQ ID NO: 13))
2 | 351 (protein, Synthetic Polypeptide sequence of Variant No. 351 of mature Human GLA) LDNGLARTPTMGWLHWERFMCNLDCQEEPDSCISEKLFMEMAERMVSEGWKDAGYEYLCIDDCWMAPQRDSEGRLQADPQRFPHGIRQLANYVHSKGLKFGIYADVGNKTCAGFPGSFGYYDIDAQTFADWGVDLLKFDGCYCDSLENLADGYKHMSLALNRTGRSIVYSCEWPLYMWPFQKPNYTEIRQYCNHWRNFADIDDSWASVKSILDWTSFNQETIVDVAGPGGWNDPDMLVIGNFGLSWNQQVTQMALWAIMAAPLFMSNDLRHISPQAKALLQDKDVIAINQDPLGKQGYQLRKGDNFEVWERPLSGLAWAVAIINRQEIGGPRSYTIAVASLGKGVACNPACFITQLLPVKRKLGFYNWTSRLKSHVNPTGTVLLQLENTMQMSLKDLL | + (+ = 0.5 to 1.5 relative activity over Rd3BB (SEQ ID NO: 13)) | ++ (++ = >1.5 to 2.5 relative activity over Rd3BB (SEQ ID NO: 13)) | + (+ = 0.5 to 1.5 relative activity over Rd3BB (SEQ ID NO: 13)) | + (+ = 0.5 to 1.5 relative activity over Rd3BB (SEQ ID NO: 13))
3 | 352 (protein, Synthetic Polypeptide sequence of Variant No. 352 of mature Human GLA) LDNGLARTPTMGWLHWERFMCNLDCQEEPDSCISEKLFMEMAERMVSEGWKDAGYEYLCIDDCWMAPQRDSEGRLQADPQRFPHGIRQLANYVHSKGLKFGIYADVGNKTCAGFPGSFGYYDIDAQTFADWGVDLLKFDGCYCDSLENLADGYKHMSLALNRTGRSIVYSCEWPLYMWPFQKPNYTEIRQYCNHWRNFADIDDSWASIKSILDWTSFNQEKIVDVAGPGGWNDPDMLVIGNFGLSWNQQVTQMALWAIMAAPLFMSNDLRHISPQAKALLQDKDVIAINQDPLGKQGYQLRKGDNFEVWERPLSGLAWAVAIINRQEIGGPRSYTIAVASLGKGVACNPACFITQLLPVKRKLGFYNWTSRLKSHVNPTGTVLLQLENTMQMSLKDLL | + (+ = 0.5 to 1.5 relative activity over Rd3BB (SEQ ID NO: 13)) | + (+ = 0.5 to 1.5 relative activity over Rd3BB (SEQ ID NO: 13)) | + (+ = 0.5 to 1.5 relative activity over Rd3BB (SEQ ID NO: 13)) | + (+ = 0.5 to 1.5 relative activity over Rd3BB (SEQ ID NO: 13))
4 | 349 (protein, Synthetic Polypeptide sequence of Variant No. 349 of mature Human GLA) LDNGLARTPTMGWLHWERFMCNLDCQEEPDSCISEKLFMEMAERMVSEGWKDAGYEYLCIDDCWMAPQRDSEGRLQADPQRFPHGIRQLANYVHSKGLKFGIYADVGNKTCAGFPGSFGYYDIDAQTFADWGVDLLKFDGCYCDSLENLADGYKHMSLALNRTGRSIVYSCEWPLYMWPFQKPNYTEIRQYCNHWRNFADIDDSWASVKSILDWTSFNQETIVDVAGPGGWNDPDMLVIGNFGLSWDQQVTQMALWAIMAAPLFMSNDLRHISPQAKALLQDKDVIAINQDPLGKQGYQLRQGDNFEVWERPLSGLAWAVAIINRQEIGGPRSYTIAVASLGKGVACNPACFITQLLPVKRKLGLYNWTSRLKSHINPTGTVLLQLENTMQMSLKDLL | + (+ = 0.5 to 1.5 relative activity over Rd3BB (SEQ ID NO: 13)) | ++ (++ = >1.5 to 2.5 relative activity over Rd3BB (SEQ ID NO: 13)) | + (+ = 0.5 to 1.5 relative activity over Rd3BB (SEQ ID NO: 13)) | + (+ = 0.5 to 1.5 relative activity over Rd3BB (SEQ ID NO: 13))
5 | 350 (protein, Synthetic Polypeptide sequence of Variant No. 350 of mature Human GLA) LDNGLARTPTMGWLHWERFMCNLDCQEEPDSCISEKLFMEMAERMVSEGWKDAGYEYLCIDDCWMAPQRDSEGRLQADPQRFPHGIRQLANYVHSKGLKFGIYADVGNKTCAGFPGSFGYYDIDAQTFADWGVDLLKFDGCYCDSLENLADGYKHMSLALNRTGRSIVYSCEWPLYMWPFQKPNYTEIRQYCNHWRNFADIDDSWASVKSILDWTSFNQETIVDVAGPGGWNDPDMLVIGNFGLSWDQQVTQMALWAIMAAPLFMSNDLRHISPQAKALLQDKDVIAINQDPLGKQGYQLRQGDNFEVWERPLSGLAWAVAVINRQEIGGPRSYTIAVASLGKGVACNPACFITQLLPVKRKLGFYNWTSRLKSHVNPTGTVLLQLENTMQMSLKDLL | + (+ = 0.5 to 1.5 relative activity over Rd3BB (SEQ ID NO: 13)) | +++ (+++ = >2.5 relative activity over Rd3BB (SEQ ID NO: 13)) | ++ (++ = >1.5 to 2.5 relative activity over Rd3BB (SEQ ID NO: 13)) | + (+ = 0.5 to 1.5 relative activity over Rd3BB (SEQ ID NO: 13))
